Reference: patent US8053627B2, “Methods for treating demyelination disorders” (University of Chicago, priority 2005, dated 2011)

What was measured:
PP1-GADD34 phosphatase = PP1-GADD34 phosphatase (Homo sapiens, UniProt O75807); conditions: Boyce, et al. (2005); cited from earlier work
[1] = system: Hippocampal organotypic cultures; assay: Hippocampal organotypic cultures (HOC), in vitro model of myelination, MBP Western blot; assay type: cell-based; conditions: 7 days; for reduction of MBP expression elicited by IFN-γ exposure: SAL at various concentrations combined with 100 U/ml IFN-γ
Procedure: HOCs, were prepared and maintained as described previously (Kunkler and Kraig (1997) J Cereb Blood Flow Metab. 17:2643), and were maintained in vitro for 7 days before use. SAL at various concentrations was combined with 100 U/ml IFN-γ and added to the HOC cultures for 7 days. […] After 7 days of 100 U/ml IFN-γ exposure, the levels of MBP decreased approximately 80% in the HOCs (FIG. 29).

cells = conditions: Boyce, et al. (2005); cited from earlier work
[2] = system: oligodendrocytes and myelin; assay: IFN-γ-overexpressing mice crossed to PLP/SOCS1 mice, clinical and histological evaluation at postnatal day 21; assay type: in vivo; conditions: for Incidence of tremor: ten mice per group; for oligodendrocyte density: corpus callosum, postnatal day 21
Procedure: IFN-γ-overexpressing mice were crossed to the PLP/SOCS1 mice in double-transgenic, (MBP/IFN-γ×PLP/SOCS1) and triple-transgenic (GFAP/tTA×TRE/IFN-γ×PLP/SOCS1) mating systems. MBP/IFN-γ×PLP/SOCS1 (172×PLP/SOCS1) mating was performed according to a standard mating protocol. The GFAP/tTA×TRE/IFN-γ×PLP/SOCS1 matings were performed in a 2-step mating process: GFAP/tTA mice were initially crossed to PLP/SOCS1 mice, and double-positive (184×PLP/SOCS1) offspring were then crossed to the TRE/IFN-γ lines 110 and 67, separately. This second mating step was performed according to the previously described “tet-off” protocol. Doxycycline 0.05 mg/ml (Sigma-Aldich) was added to the water of impregnated female mice until embryonic day 14, after which the animals were switched back to normal water, thereby allowing initiation of IFN-γ transcription, which peaks during the postnatal period (Lin et al., 2005).
The litters of the mating systems (F1 generation) were examined daily and sacrificed at postnatal day 21. Clinical evaluation included behavioral observation and challenged ladder walking to elicit tremor. Histological examination included quantitation of the number and density of oligodendrocytes and examination of the myelination patterns. Brain tissue was simultaneously obtained from each animal at the time of sacrifice to verify and measure the expression of IFN-γ and Flag-SOCS1 (see below). The clinical and histological findings were subsequently stratified according to genotype. All animal procedures were conducted in compliance with the National Institutes of Health Guide for Care and Use of Laboratory Animals and were approved by the Institutional Animal Care and Use Committee at The University of Chicago.
Oligodendrocyte cell density was assessed digitally using Axiovision software, at postnatal day 21, as previously described (Lin et al., 2005). The brains were sectioned sagittally through the corpus callosum dividing the brain in two symmetrical halves. Ten frozen sections from each half were prepared at 7 μm thickness, and numbered in the sequence of their preparation. The brains of three animals per study group were prepared in this fashion. Following the CC1 immunostaining the corresponding area of corpus callosum of each section was digitally selected and the corresponding total area obtained. CC1 cell counting was performed manually within the selected areas of each section, and the number of CC1 positive cells per square area (mm^2) calculated. The results were presented as mean±SD of CC1 (+) cells/mm^2 with n=3 animals per study group.
Myelination patterns of the examined animals were assessed at postnatal day 21 by calculating the percent unmyelinated axons and ratio of the axon/fiber diameters (G ratio) with Image J software (National Institutes of Health, Bethesda, Md.) as previously described (Lin at al., 2005). The brains were sectioned sagittally through the corpus callosum dividing the brain in two symmetrical halves. Approximately 2 mm^3 samples from the genu and the splenum of both halves of corpus callosum were obtained using a Wild M3C stereotype microscope. The orientation of the specimen in the resin blocks yielding axonal cross-sections (well seen myelin rings) was chosen, and established by toluedine blue staining of a few sample sections. The resin blocks with the chosen orientation were processed for electron microscope examination. Randomly selected areas were examined and ten representative pictures from both genu and splenum corpus callosum were obtained at 12000× magnification. The number of unmyelinated axons was assessed by manual counting of axons that lacked myelin and were encircled solely by their own plasma membrane. All unmyelinated axons present in the representative images were counted, and their percentage calculated by examining a total of five hundred axons per tissue sample. […]

Sequence of PP1-GADD34 phosphatase (O75807 whole entry): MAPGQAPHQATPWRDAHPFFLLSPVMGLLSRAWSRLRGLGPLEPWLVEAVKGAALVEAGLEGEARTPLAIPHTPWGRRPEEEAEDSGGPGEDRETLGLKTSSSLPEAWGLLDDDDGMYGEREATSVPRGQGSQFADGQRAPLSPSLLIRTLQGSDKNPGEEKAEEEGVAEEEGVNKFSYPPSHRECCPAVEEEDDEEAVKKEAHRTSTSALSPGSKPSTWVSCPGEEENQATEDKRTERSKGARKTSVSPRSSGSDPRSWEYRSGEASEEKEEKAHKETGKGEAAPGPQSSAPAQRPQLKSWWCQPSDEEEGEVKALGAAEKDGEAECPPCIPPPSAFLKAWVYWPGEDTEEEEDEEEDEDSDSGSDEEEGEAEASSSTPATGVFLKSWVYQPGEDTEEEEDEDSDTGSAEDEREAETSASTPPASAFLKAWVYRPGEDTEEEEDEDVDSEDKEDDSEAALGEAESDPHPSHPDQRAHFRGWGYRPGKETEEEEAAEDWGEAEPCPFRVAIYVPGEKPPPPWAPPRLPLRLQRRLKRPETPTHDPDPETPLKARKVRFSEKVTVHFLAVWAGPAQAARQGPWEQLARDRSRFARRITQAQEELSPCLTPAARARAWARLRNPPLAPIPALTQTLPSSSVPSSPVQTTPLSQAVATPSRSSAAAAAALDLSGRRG

Row | Molecule | PP1-GADD34 phosphatase activity (PP1-GADD34 phosphatase) | reduction of MBP expression elicited by IFN-γ exposure [1] | reduction of MBP expression elicited by IFN-γ exposure ([1]; listed as Sal) | MBP expression ([1]; SAL treatment alone) | protection of cells from ER stress and viral infection (cells) | Incidence of tremor ([2]; 172 × PLP/SOCS1 littermates) | oligodendrocyte density ([2]; 184/67 system) | Incidence of tremor ([2]; 184/67 × PLP/SOCS1 littermates) | oligodendrocyte density ([2]; 184/110 system) | Incidence of tremor ([2]; 184/110 × PLP/SOCS1 littermates) | MHC class I molecule expression (immunostaining) ([2]; MBP/IFN-γ and MBP/IFN-γ×PLP/SOCS1 brains)
1 | O=C(/C=C/c1ccccc1)NC(NC(=S)Nc1cccc2cccnc12)C(Cl)(Cl)Cl (centres unmarked) [SAL, salubrinal] | specifically inhibits | markedly attenuated | attenuating effect | did not affect | protects cells from ER stress and viral infection | – | – | – | – | – | –
2 | SOCS1: suppressor of cytokine signaling 1, Flag-tagged, expressed in oligodendrocytes from the PLP/SOCS1 transgene (protein, UniProt O35716 1-212, looked up, FLAG tag, suppressor of cytokine signaling 1, Flag-tagged, expressed in oligodendrocytes from the PLP/SOCS1 transgene) Suppressor of cytokine …: MVARNQVAADNAISPAAEPRRRSEPSSSSSSSSPAAPVRPRPCPAVPAPAPGDTHFRTFRSHSDYRRITRTSALLDACGFYWGPLSVHGAHERLRAEPVGTFLVRDSRQRNCFFALSVKMASGPTSIRVHFQAGRFHLDGSRETFDCLFELLEHYVAAPRRMLGAPLRQRRVRPLQELCRQRIVAAVGRENLARIPLNPVLRDYLSSFPFQI | – | – | – | – | – | 0% | 142±5 CC1 (+) cells/mm^2 | 0% | 141±6 CC1 (+) cells/mm^2 | 0% | did not express detectable levels
